Data from US20180355043A1.

Legend:
Test in all cases: MSD ECL; antigen coated; protocol of Example 3
[1] = molecular target: DR4G103: Human HLA-DRA1*01:02/DRB1*15:01 ECD with hemagglutinin peptide HA_304-318 (human)
[2] = molecular target: DR4G104: Human HLA-DRA1*01:02/DRB1*04:02 ECD with hemagglutinin peptide HA_304-318 (human)
[3] = molecular target: DR4G119: Human HLA-DRA1*01:02/DRB1*10:01 ECD with hemagglutinin peptide HA_304-318 (human)

With Isotype control (antibody) the ECL signal [1] was 487 ECL, the ECL signal [2] was 1130 ECL and the ECL signal [3] was 517 ECL.
